# Assay results taken from PMC11302665.
# How the values were obtained:
# [1] = target: IscS (Escherichia coli) (UniProt P0A6B7); assay: native mass spectrometry; conditions: cited from earlier work
# [2] = target: R220/223/225E triple variant of IscS (E. coli) (UniProt P0A6B7); assay: native MS; ESI-MS under non-denaturing conditions of IscS alone, 250 mM ammonium acetate, pH 8.0
# [3] = target: L-cysteine desulfurase IscS (E. coli) (UniProt P0A6B7); assay: native MS; ~8 µM IscS (~4 µM dimeric IscS) titrated with increasing TusA in 250 mM ammonium acetate, pH 8.0; fractional intensities fitted to a sequential binding model (Dynafit)
# [4] = target: L-cysteine desulfurase IscS (E. coli) (UniProt P0A6B7)
Kd [3],Substance,also measured
–,IscU (from UniProt P0ACD4),Kd [1]: 3 µM
–,R220/223/225E triple variant of IscS (from UniProt P0A6B7 1-404) (enzyme),stoichiometry N [2]: 2
8 µM,TusA (from UniProt P0A890 1-81) (natural protein),L-cysteine desulfurase activity of IscS (methylene blue assay) after addition of TusA [4]: 3 fold
8 µM,TusA C19S variant (from UniProt P0A890 1-81) (natural protein),–
8 µM,TusA C56A variant (from UniProt P0A890 1-81) (natural protein),–
